In this test the target is T1, GST-RNF2 (human, UniProt Q99496 1-336).
T1 construct: RNF2; also called recombinant GST-tagged human RNF2; source: Escherichia coli BL-21, immobilized on glutathione-Sepharose beads
T1 sequence (looked up): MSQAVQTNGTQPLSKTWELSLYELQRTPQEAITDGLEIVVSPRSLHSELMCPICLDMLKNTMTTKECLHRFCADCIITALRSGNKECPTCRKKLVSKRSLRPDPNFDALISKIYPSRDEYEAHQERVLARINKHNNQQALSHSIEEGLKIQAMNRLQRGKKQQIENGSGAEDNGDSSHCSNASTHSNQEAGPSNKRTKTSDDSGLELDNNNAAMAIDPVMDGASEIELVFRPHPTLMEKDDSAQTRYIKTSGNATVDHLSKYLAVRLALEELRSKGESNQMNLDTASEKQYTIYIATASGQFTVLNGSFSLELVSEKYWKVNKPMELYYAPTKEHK
Briefly: pull-down; GST-RNF2 immobilized on glutathione-Sepharose beads incubated with recombinant His-MANF; blot with anti-MANF. The conditions noted are these: both partners purified.

Here are results for one molecule from publication PMC11607471, “E3 Ubiquitin Ligase Ring Finger Protein 2 Alleviates Cerebral Ischemia–Reperfusion Injury by Stabilizing Mesencephalic Astrocyte‐Derived Neurotrophic Factor Through Monoubiquitination” (CNS Neuroscience & Therapeutics, 2024).

B1: His-tagged human MANF (natural protein, UniProt P55145 25-182, looked up)
chain: LRPGDCEVCISYLGRFYQDLKDRDVTFSPATIENELIKFCREARGKENRLCYYIGATDDAATKIINEVSKPLAHHIPVEKICEKLKKKDSQICELKYDKQIDLSTVDLKKLRVKELKKILDDWGETCKGCAEKSDYIRKINELMPKYAPKAASARTDL
notes: human MANF; also called His-MANF; recombinant His-MANF; source: Escherichia coli BL-21, purified (Ni-NTA agarose)
Regarding B1, the binding result is on record as “binds”.
